This data set relates to T1, AbTetR (TetR class G) (Acinetobacter baumannii AYE), ORF:695ec09f.
T1 sequence: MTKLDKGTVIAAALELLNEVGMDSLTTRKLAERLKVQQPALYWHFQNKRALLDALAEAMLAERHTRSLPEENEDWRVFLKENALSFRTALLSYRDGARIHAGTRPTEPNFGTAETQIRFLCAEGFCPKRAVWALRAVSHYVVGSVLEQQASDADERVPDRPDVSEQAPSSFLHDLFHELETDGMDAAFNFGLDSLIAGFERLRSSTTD
As to the kind of experiment: EMSA. In general terms: In EMSA bound probe runs differently from free probe, usually more slowly.
With “ATCAACGATAAGGAGATGGACATATAACTTATCGGTGATAAATTGTCAAGCACTGGCGAAGGAACGTGA (double strand) [70 bp tetR-tetA(G) fragment]”, the binding entry is listed as “binds”. The same measure for “CGAATCAAGCAGGAACCATCCAAGATTGGCATAAAAGGTACATTCAACCTTTTCACTGCATCCCATTGGTGCACGTACTCGGTCTTGCAACTCGGA (double strand) [96 bp non-binding sequence]”: “no binding”; for “CTGAAACTCCAGCGCCGCTCAATGGAGCGACTTTATCAACGATAAGGAGATGGACATATAACTTA (double strand) [65 bp tetR-tetA(G) fragment]”: “binds”; for “CTGAAACTCCAGCGCCGCTCAATGGAGCGACTTTATCAACGATAAGGAGATGGACATATAACTTATCGGTGATAAATTGTCAAGCACTGGCGAAGGAACGTGA (double strand) [103 bp tetR-tetA(G) fragment]”: “binds”. On to “CTGAAACTCCAGCGCCGCTCAATGGAGCGACTTTATCAACGATAAGGAGATGGACATATAACTTATCGGTGATAAATTGTCAAGCACTGGCGAAGGAACGTGAATGACCAAACTGGACAAGGGCACCGTGATCGCGGCGGCGCTAGAGCTGTTGAACGAGGTTGGCATGGACAGCCTGACGACGCGGAAGCTCGCTGAACGCCTCAAGGTTCAGCA (double strand) [216 bp tetR-tetA(G) fragment]”, for which the binding entry was “binds”. As for “GCACAAGCTCACGCAGAAGCGTCGGAAGGACGGGCATGATGAGGCCGAGACCCATGGCGTCAAGACCCACGATCAGCAGGGCAATGATGGCAGAGCTGCGCACCTGAAACTCCAGCGCCGCTCAATGGAGCGACTTTATCAACGATAAGGAGATGGACATATAACTTATCGGTGATAAATTGTCAAGCACTGGCGAAGGAACGTGA (double strand) [206 bp tetR-tetA(G) fragment]”, the binding result was “binds”.

These data come from article PMC8326586.
